B1: TPR 5TU (parent)
chain: GGAUCUUCUCGAUCUAACAAAAAAGACAAAUCUGCCACAAAGCUUGAGAGCAUCUUCGGAUGCAGAGGCGGCAGCCUUCGGUGGCGCGAUAGCGCCAACGUUCUCAACUAUGACACGCAAAACGCGUGCUCCGUUGAAUGGAGUUUAUCAUG

Fewer inactive variants are shown than the library holds. A value given as a limit tells only on which side of the number the result lay.

Experimental findings from the RNAGym collection of RNA variant scans (doi:10.1073/pnas.2313332121) are described below.

Variants of B1 are the subject of this data set. Briefly: polymerase ribozyme fitness, log enrichment relative to wild type (log ratio); higher = more active; in vitro selection for triplet polymerase activity. In short, it runs like this: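 To select mutant libraries of each subunit of a heterodimeric triplet polymerase ribozyme, built by PCR and transcribed, each was annealed with a biotinylated primer, partner subunit and triplets, then incubated frozen at −7 °C. Extended constructs were gel-excised, captured on streptavidin beads and amplified by RT-PCR, in one round carried out in triplicate. Illumina sequencing of input and output libraries kept genotypes with ≥10 input reads and ≥1 read per output. Fitness is the base-2 logarithm of genotype enrichment relative to wild-type enrichment, from inverse-variance-weighted replicate averages.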
As to GGAUCUUCUCGAUCUAACAAAAAAGACAAAUCUGCCACAAAGCUUGAGAGCAUCUUCGGAAGCAGAGGCGGCAGCCUUCGGUGGCGCGAUAGCGCCAACGUUCUCAACUAUGACACGCAAAACGCGUGCUCCGUUGAAUGGAGUUCAUCAUG, the “polymerase ribozyme fitness (log ratio)” value was -0.489.

On to GGAUCUUCUCGAUCUAACAAAAAAGACAAAUCUGCCACAAAGCUUGAGAGCAUCUUCGGAGGCAGAGGCGGCAGCCUUCGGUGGCGCGAUAGCGCCAACGUUCUCAACUAUGACACGCAAAACCCGUGCUCCGUUGAAUGGAGUUUUUCAUG, for which the “polymerase ribozyme fitness (log ratio)” value was -1.99.

As for GGAUCUUCUCGAUCUAACAAAAAAGACAAAUCUGCCACAAAGCUUGAGAGCAUCUUCGGAAGCAGAGGCGGCAGCCGUCGGUGGUGCGAUAGCGCCAACGUUCUCAACUAUGACACGCAAAACGAGUGCUCCGUUGAAUGGAGUUUAUCAUG, the “polymerase ribozyme fitness (log ratio)” value was at most -4.2.

GGAUCUUCUCGAUCUAACAAAAAAGACAAAUCUGCCACAAAGCUUGAGAGCAUCUUCGGAUACAGAGGCGGCAGCCUUCGGUGGCGUGAUAGCGCCAACGUUCUCAACUAUGACAUUCAAAACGCGUGCUCCGUUGAAUGGAGUUUAUCAUG: the “polymerase ribozyme fitness (log ratio)” value is -0.42.

For the variant GGAUCUUCUCGAUCUAACAAAAAAGACAAAUCUGCCACAAAGCUUGAGAGCAUCUUCGGACGCAGAGGCGGCAGCCUUCGGUGGUGCGAUAGCGCCAACGUUCUCAACUAUGACACGCAAAACGCGUGCUCCGUUGAAUGGAGUUUAUCAUG, the “polymerase ribozyme fitness (log ratio)” value was -2.66.

GGAUCUUCUCGAUCUAACAAAAAAGACAAAUCUGCCACAAAGCUUGAGAGCAUCUUCGGAUACAGAGGCGGCCGCCUUCGGUGGCGGGAUAGCGCCAACGUUCUCAACUAUGACACGCAAAACGCGUGCUCCGUUGAAUGGAGUUUAUCAUG: the “polymerase ribozyme fitness (log ratio)” value is at most -4.2.

As to GGAUCUUCUCGAUCUAACAAAAAAGACAAAUCUGCCACAAAGCUUGAGAGCAUCUUCGGAUACAGAGGCGGCAGCCUUCGGUGGCGCGAUAGCGCCAACGUUCUCAACUAUGACACGCACAACGCGUGCUCCGUUGAAUGGAGUUUAUCAUG, the “polymerase ribozyme fitness (log ratio)” value is -1.04.

As for GGAUCUUCUCGAUCUAACAAAAAAGACAAAUCUGCCACAAAGCUUGAGAGCAUCUUCGGAGGCAGAGGCGGUAGCCUUCGGUGGCGCGAUAGCGCCAACGUUCUCAACUAUGACACGCAAAACGCGUGCUCCGUUGAAUGGAGUUUAUCAUG, the “polymerase ribozyme fitness (log ratio)” value is -1.45.

Regarding GGAUCUUCUCGAUCUAACAAAAAAGACAAAUCUGCCACAAAGCUUGAGAGCAUCUUCGGAUACAGAGGCGGCAGCCUUCGGUGGCGCGAUAGUGCCAACGUUCUCAACUAUGACACGUAAAACGCGUGCUCCGUUGAAUGGAUUUUAUCAUG, the “polymerase ribozyme fitness (log ratio)” value is -3.81.

With GGAUCUUCUCGAUCUAACAAAAAAGACAAAUCUGCCACAAAGCUUGAGAGCAUCUUCGGAGGCAGAGGCGGCAGCCUUCGGUGGCGCGAUAGCGCCAACGUUCUCAACUAUGACACCCAAAACGCGUGCUCCGUUGAAUGGCGUUGAUCAUG, the “polymerase ribozyme fitness (log ratio)” value was at most -4.2.

For the variant GGAUCUUCUCGAUCUAACAAAAAAGACAAAUCUGCCACAAAGCUUGAGAGCAUCUUCGGAUACAGAGGCGGCAGGCUUCGGUGGCGCGAUAGCGCAAACGUUCUCAACUAUGACACGCAAAACGCGUGCUCCGUUGAAUGGAGUUUAUCAUG, the “polymerase ribozyme fitness (log ratio)” value was at most -4.2.

Consider GGAUCUUCUCGAUCUAACAAAAAAGACAAAUCUGCCACAAAGCUUGAGAGCAUCUUCGGAGGCAGAAUCGGCAGCCUUCGGUGGCGAGAUAGCGCCAACGUUCUCAUCUAUGACACGCAAAACGCCUGCUCCGUUGAAUGGAGUUUAUGAUG, for which the “polymerase ribozyme fitness (log ratio)” value is at most -4.2.

Turning to GGAUCUUCUCGAUCUAACAAAAAAGACAAAUCUGCCACAAAGCUUGAGAGCAUCUUCGGACGCAGAGGCGGCAGCCUUCGAUGGCGCGAUAGCGCCAACGUUCUCAACUAUGACACGCAAAACGCGUGCUCCGUUGAAUGGAGUUUAUCAUG, the “polymerase ribozyme fitness (log ratio)” value is -2.36.

Take GGAUCUUCUCGAUCUAACAAAAAAGACAAAUCUGCCACAAAGCUUGAGAGCAUCUUCGGAGGCAGAGGUGGCAGCCUUCGGUGGCGCGAUAGGGCCAACGUUCUCAACUAUGACACGCAAAACGCGUGCUCCGUUGAAUGGAAUUUAUCAUG: the “polymerase ribozyme fitness (log ratio)” value was at most -4.2.

GGAUCUUCUCGAUCUAACAAAAAAGACAAAUCUGCCACAAAGCUUGAGAGCAUCUUCGGAAGCAGAGGCGGCAGCCUUCGGUAGCGCGAUAGCGCCAACGUUCUCAACUAUGACACGCAAAACGCGUGCUCCGUUGAAUGGAGUUUAUCAUG: the “polymerase ribozyme fitness (log ratio)” value is -2.9.

Consider GGAUCUUCUCGAUCUAACAAAAAAGACAAAUCUGCCACAAAGCUUGAGAGCAUCUUCGGAGGCAGAGGCGGCAGCCUUCGGUGGCGCGAUAGCGCCAACGUUCUCAACUAUGACACGCAAAACGCGUGCUCCGUUGAAUGGAGUUUAUCAUG, for which the “polymerase ribozyme fitness (log ratio)” value is -1.25.

As for GGAUCUUCUCGAUCUAACAAAAAAGACAAAUCUGCCACAAAGCUUGAGAGCAUCUUCGGACGCAGAGGCGGCAGCCUUCGGUGGCGCGAUAGCGCCAACGUUCUCAACUAUGACACGCAAAACGCGUGCUCCGUUGAAUGGAGUUUAUCAUG, the “polymerase ribozyme fitness (log ratio)” value is -1.79.

As for GGAUCUUCUCGAUCUAACAAAAAAGACAAAUCUGCCACAAAGCUUGAGAGCAUCUUCGGAGGCAGAGGCGGCAGCCUUCGGUGGCGCGAUAGCGCCAACGUUCUCAACUAUGACACGCAAAACGAGUGCUCCGUUGAAUGGAGUUUAUCAUG, the “polymerase ribozyme fitness (log ratio)” value is -1.26.

On to GGAUCUUCUCGAUCUAACAAAAAAGACAAAUCUGCCACAAAGCUUGAGAGCAUCUUCGGAGGCAGAGGCGGCAGCCUUCGGUGGCGCGAUAGCGCCAACGUUCUCAACUAUGACACGCAAAACCCGUGCUCCGUUGAAUGGAGUUUAUCAUG, for which the “polymerase ribozyme fitness (log ratio)” value is -3.25.
